{
  "source": "paper PMC4500839",
  "about": "(Nature communications, 2015)",
  "biological_target": "gp120BaL (HIV-1 group M subtype B, isolate BaL …, UniProt Q6TAP7, strain)",
  "assay": "ELISA",
  "data": [
    {"binder": "PGT128 (antibody, V domains shown) VH: QPQLQESGPTLVEASETLSLTCAVSGDSTAACNSFWGWVRQPPGKGLEWVGSLSHCASYWNRGWTYHNPSLKSRLTLALDTPKNLVFLKLNSVTAADTATYYCARFGGEVLRYTDWPKPAWVDLWGRGTLVTVSS VL: QSALTQPPSASGSPGQSITISCTGTSNNFVSWYQQHAGKAPKLVIYDVNKRPSGVPDRFSGSKSGNTASLTVSGLQTDDEAVYYCGSLVGNWDVIFGGGTKLTVL", "values": [
      {"measurement": "binding result", "value": "binds"}
    ]}
  ]
}
